The values below come from patent US20240150447A1.

In general, Kd refers to a measure of binding affinity in units of concentration. A low value points to a tighter complex. The term koff denotes the first-order rate constant of dissociation. A lower koff goes with slow dissociation. The term kon denotes the second-order rate constant of association.

The target in assay [1] is human FcRn and human B2M (beta-2-microglobulin) expressed on MDCK II cells (human) (UniProt P55899). Nature of the assay: cell-based or functional assay.
Chain of human FcRn and human B2M (beta-2-microglobulin) expressed on MDCK II cells (human) (P55899 24-365 limits assumed, chain 1 of 2): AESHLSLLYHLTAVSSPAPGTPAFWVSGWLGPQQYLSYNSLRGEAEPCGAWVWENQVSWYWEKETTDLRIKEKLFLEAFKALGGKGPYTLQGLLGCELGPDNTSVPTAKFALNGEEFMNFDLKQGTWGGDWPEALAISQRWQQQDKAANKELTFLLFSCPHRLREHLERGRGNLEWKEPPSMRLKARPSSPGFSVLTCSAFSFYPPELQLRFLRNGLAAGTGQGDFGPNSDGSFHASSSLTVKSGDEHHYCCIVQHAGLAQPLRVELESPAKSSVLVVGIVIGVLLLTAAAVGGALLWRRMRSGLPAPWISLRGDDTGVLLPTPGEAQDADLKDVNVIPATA
Chain of human FcRn and human B2M (beta-2-microglobulin) expressed on MDCK II cells (human) (b2m, as listed by the source limits assumed, chain 2 of 2): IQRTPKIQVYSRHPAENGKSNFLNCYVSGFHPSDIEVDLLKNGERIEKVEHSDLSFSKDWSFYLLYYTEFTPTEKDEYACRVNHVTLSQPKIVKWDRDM
The target in assay [2] is human FcRn protein (human) (UniProt P55899). Briefly: SPR, Ab on Protein L chip, hFcRn in flow, pH 6.0.
Chain of human FcRn protein (human) (P55899 24-297 limits assumed, chain 1 of 2): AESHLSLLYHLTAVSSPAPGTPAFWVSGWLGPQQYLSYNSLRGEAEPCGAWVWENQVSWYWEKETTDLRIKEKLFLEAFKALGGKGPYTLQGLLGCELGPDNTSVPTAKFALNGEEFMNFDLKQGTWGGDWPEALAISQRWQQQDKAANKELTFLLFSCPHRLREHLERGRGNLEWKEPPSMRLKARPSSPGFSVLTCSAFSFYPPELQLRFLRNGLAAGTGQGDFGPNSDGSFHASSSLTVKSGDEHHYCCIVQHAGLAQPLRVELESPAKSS
Chain of human FcRn protein (human) (chain, as listed by the source limits assumed, chain 2 of 2): as the sequence (b2m, as listed by the source limits assumed, chain 2 of 2) above
Assay [3] has the same target. Nature of the assay: SPR, Ab on Protein L chip, hFcRn in flow, pH 7.4. On the technique in general: SPR reads the build-up and loss of mass on a sensor chip optically.

Turning to “anti-O4 hIgG1 M252Y/T256A/V308P/N434W (antibody)”, in assay [1], the Transcytosis Normalized to IAHA at pH 6.0 (ratio to IAHA) was 190.
Consider “anti-O4 hIgG1 M252Y/T256A/V308P/N434Y (antibody)”, for which, in assay [1], the Transcytosis Normalized to IAHA at pH 6.0 (ratio to IAHA) came out at 193.
Same read-out and setting: the result for “anti-O4 hIgG1 M252Y/T256D/V308P/N434W (antibody)” reads 153; that for “anti-O4 hIgG1 M252Y/T256E/V308P/N434F (antibody)”, 182.
Still for that read-out and setting: to “anti-O4 hIgG1 M252Y/T256E/V308P/N434H (antibody)” belongs 155; to “anti-O4 hIgG1 M252Y/T256E/V308P/N434W (antibody)”, 154; to “anti-O4 hIgG1 M252Y/T256E/V308P/N434Y (antibody)”, 124.
Still for that read-out and setting: to “anti-O4 hIgG1 M252Y/T256F/V308P/N434F (antibody)” belongs 60.4; to “anti-O4 hIgG1 M252Y/T256F/V308P/N434Y (antibody)”, 193.
In the case of “anti-O4 hIgG1 M252Y/T256G/V308P/N434Y (antibody)”, the Transcytosis Normalized to IAHA at pH 6.0 (ratio to IAHA) in assay [1] worked out at 130.
As for “anti-O4 hIgG1 M252Y/T256H/V308P/N434F (antibody)”, the Transcytosis Normalized to IAHA at pH 6.0 (ratio to IAHA) in assay [1] was 192.
Still for that read-out and setting: to “anti-O4 hIgG1 M252Y/T256I/V308P/N434Y (antibody)” belongs 126; to “anti-O4 hIgG1 M252Y/T256L/V308P/N434W (antibody)”, 217.
Same read-out and setting: to “anti-O4 hIgG1 M252Y/T256L/V308P/N434Y (antibody)” belongs 303.
The same measure, in the same setting: to “anti-O4 hIgG1 M252Y/T256N/V308P/N434Y (antibody)” belongs 174; to “anti-O4 hIgG1 M252Y/T256P/V308P/N434W (antibody)”, 208; to “anti-O4 hIgG1 M252Y/T256P/V308P/N434Y (antibody)”, 132.
For the substance “anti-O4 hIgG1 M252Y/T256Q/V308P/N434W (antibody)”, in assay [1], the Transcytosis Normalized to IAHA at pH 6.0 (ratio to IAHA) is 156.
For “anti-O4 hIgG1 M252Y/T256Q/V308P/N434Y (antibody)”, the Transcytosis Normalized to IAHA at pH 6.0 (ratio to IAHA) in assay [1] came out at 286.
The same measure, in the same setting: to “anti-O4 hIgG1 M252Y/T256R/V308P/N434W (antibody)” belongs 162.
The same measure, in the same setting: the result for “anti-O4 hIgG1 M252Y/T256R/V308P/N434Y (antibody)” reads 655.
On the same count and under the same terms, to “anti-O4 hIgG1 M252Y/T256S/V308P/N434W (antibody)” belongs 159; to “anti-O4 hIgG1 M252Y/T256S/V308P/N434Y (antibody)”, 156.
Turning to “anti-O4 hIgG1 M252Y/T256V/V308P/N434F (antibody)”, in assay [1], the Transcytosis Normalized to IAHA at pH 6.0 (ratio to IAHA) was 98.9.
The same measure, in the same setting: to “anti-O4 hIgG1 M252Y/T256V/V308P/N434W (antibody)” belongs 209; to “anti-O4 hIgG1 M252Y/T256V/V308P/N434Y (antibody)”, 183; to “anti-O4 hIgG1 M252Y/T256W/V308P/N434W (antibody)”, 147.
On the same count and under the same terms, to “anti-O4 hIgG1 M252Y/T256W/V308P/N434Y (antibody)” belongs 588; to “anti-O4 hIgG1 M252Y/T256Y/V308P/N434Y (antibody)”, 8.35; to anti-O4 hIgG1 M252Y/V308P (antibody), 281.
Same read-out and setting: the result for “anti-O4 hIgG1 WT (wild type Fc) (antibody)” reads 122.
In the case of “hIgG1 M252Y/N286E/V308P/M428I/N434Y, O4 VH with Ab6 light chain (antibody)”, in assay [2], the dissociation constant Kd stood at 0.109 nM, the koff turned out to be 0.000201 s⁻¹ and the kon worked out at 1.84e+06 M⁻¹ s⁻¹. Besides, in assay [3], the Kd came to 1030 nM, the off-rate constant (koff) was determined as 1.03 s⁻¹ and the kon was 1e+06 M⁻¹ s⁻¹.
In assay [2], “hIgG1 M252Y/N434Y/Y436V, O4 VH with Ab6 light chain (antibody)” returned a dissociation constant Kd of 5.48 nM, a dissociation rate constant (koff) of 0.00756 s⁻¹ and a kon of 1.38e+06 M⁻¹ s⁻¹. Also, in assay [3], the Kd was 25700 nM, the off-rate (koff) was found to be 1.14 s⁻¹ and the kon stood at 44300 M⁻¹ s⁻¹.
As to “hIgG1 M252Y/S254T/T256E/V308P, O4 VH with Ab6 light chain (antibody)”, in assay [2], the Kd stood at 21.5 nM, the koff is 0.0139 s⁻¹ and the on-rate (kon) amounted to 648000 M⁻¹ s⁻¹. In addition, in assay [3], the Kd was 975 nM, the koff came out at 1.96 s⁻¹ and the kon came to 2.01e+06 M⁻¹ s⁻¹.
In assay [2], “hIgG1 M252Y/S254T/T256E/V308P/N434W, O4 VH with Ab6 light chain (antibody)” displayed a dissociation constant Kd of 0.471 nM, a koff of 0.000795 s⁻¹ and a kon of 1.69e+06 M⁻¹ s⁻¹. Further, in assay [3], the Kd was found to be 122 nM, the koff stood at 0.00101 s⁻¹ and the kon came to 8320 M⁻¹ s⁻¹.
In assay [2], “hIgG1 M252Y/S254T/V308P, O4 VH with Ab6 light chain (antibody)” gave a dissociation constant (Kd) of 31.7 nM, a koff of 0.0177 s⁻¹ and an on-rate constant (kon) of 557000 M⁻¹ s⁻¹. In addition, in assay [3], the Kd was determined as 76700 nM, the koff turned out to be 1.13 s⁻¹ and the kon worked out at 14700 M⁻¹ s⁻¹.
In assay [2], “hIgG1 M252Y/T256K/V308P/N434W, O4 VH with Ab6 light chain (antibody)” displayed a Kd of 1.31 nM and an off-rate constant (koff) of 0.00143 s⁻¹. In assay [3], this substance had a Kd of 239 nM.
In assay [2], “hIgG1 M252Y/V308P, O4 VH with Ab6 light chain (antibody)” gave a Kd of 37.4 nM, a koff of 0.0279 s⁻¹ and a kon of 745000 M⁻¹ s⁻¹. For the same substance, in assay [3], the dissociation constant (Kd) was found to be 51.8 nM, the off-rate (koff) is 0.00221 s⁻¹ and the kon came to 42600 M⁻¹ s⁻¹.
